Measured values taken from US20180021429A1, “ANTICANCER AGENTS OR ANTIMETASTATIC AGENTS USING FSTL1 AND COMBINATION DRUG THEREOF” (PHARMA FOODS INTERNATIONAL CO., LTD., priority 2015, published 2018).

What was measured:
[1] = test system: induction of mesenchymal stem cells (MSCs) by FSTL1; test: Inhibitory activity against induction of MSC by FSTL1, CD45-negative cells (Examples 6, 8, 12); format: cell-based, mouse; conditions: Example 8, FIG. 6A/36A; FSTL1 20 ng/mL; antibody 10 μg/mL; 8 days
Description: (§1) Mouse bone marrow cells prepared in the same way as in Example 4 were supplemented with 50 ng/mL (final concentration) of FSTL1 and 10 μg/mL of the anti-FSTL1 antibody (#5-2, #5-3, #5-8, #5-10, 45-43, #6-55, or #7-34) or a control antibody anti-DNP antibody and cultured under stimulation. 11 days thereafter, the number of cells was counted while the cells were stained with a PE-Cy5-labeled anti-CD45 antibody (BD Pharmingen/Becton, Dickinson and Company, Cat. No. 555484), and the content of CD45-negative cells reported to generally contain MSCs at a high rate was analyzed by flow cytometry using FACScan to calculate the percentage and number of MSCs per culture (FIG. 5A).
Mouse bone marrow cells prepared in the same way as in Example 4 were supplemented with 20 ng/mL (final concentration) of FSTL1 and 10 μg/mL of the anti-FSTL1 antibody (#5-2, #5-3, #5-8, #5-10, #5-43, #6-55, #8-1, #8-4, #8-7, and #8-8) or a control antibody anti-DNP antibody and cultured under stimulation. 8 days thereafter, the number of cells was counted while the cells were stained with a PE-Cy5-labeled anti-CD45 antibody, and the content of CD45-negative cells was analyzed by flow cytometry using FACScan to calculate the percentage and number of MSCs per culture (FIG. 6A).
Mouse bone marrow cells prepared in the same way as in Example 4 were supplemented with 20 ng/mL (final concentration) of FSTL1 and 10 μg/mL of the anti-FSTL1 antibody (#5-2, #5-8, #6-55, #7-34, #8-1, #8-4, #8-7, or #8-8) or a control antibody anti-DNP antibody and cultured under stimulation. 8 days thereafter, the number of cells was counted while the cells were stained with a PE-Cy5-labeled anti-CD45 antibody, and the content of CD45-negative cells was analyzed by flow cytometry using FACScan to calculate the percentage and number of MSCs per culture (FIG. 7).
as §1, with “35A).” for “5A).”
Mouse bone marrow cells prepared in the same way as in Example 4 were supplemented with 20 ng/mL (final concentration) of FSTL1 and 10 μg/mL of the anti-FSTL1 antibody (#5-2, #5-3, #5-8, #5-10, #5-43, #6-55, #8-1, #8-4, #8-7, and #8-8) or a control antibody anti-DNP antibody and cultured under stimulation. 8 days thereafter, the number of cells was counted while the cells were stained with a PE-Cy5-labeled anti-CD45 antibody, and the content of CD45-negative cells was analyzed by flow cytometry using FACScan to calculate the percentage and number of MSCs per culture (FIG. 36A).
Mouse bone marrow cells prepared in the same way as in Example 4 were supplemented with 20 ng/mL (final concentration) of FSTL1 and 10 μg/mL of the anti-FSTL1 antibody (#5-2, #5-8, #6-55, #7-34, #8-1, #8-4, #8-7, or #8-8) or a control antibody anti-DNP antibody and cultured under stimulation. 8 days thereafter, the number of cells was counted while the cells were stained with a PE-Cy5-labeled anti-CD45 antibody, and the content of CD45-negative cells was analyzed by flow cytometry using FACScan to calculate the percentage and number of MSCs per culture (FIG. 37).

[2] = biological target: T1, FSTL1 (Homo sapiens, UniProt Q12841); test: Inhibition of MSC induction by FSTL1 in mouse bone marrow cells, CD45-negative cells (Examples 6, 8, 12); format: cell-based; parameters: purchased R&D Systems, Inc. 1694-FN-050; conditions: Example 8; FSTL1 20 ng/mL, antibody 10 μg/mL, 8 days
T1 sequence (Q12841 21-308): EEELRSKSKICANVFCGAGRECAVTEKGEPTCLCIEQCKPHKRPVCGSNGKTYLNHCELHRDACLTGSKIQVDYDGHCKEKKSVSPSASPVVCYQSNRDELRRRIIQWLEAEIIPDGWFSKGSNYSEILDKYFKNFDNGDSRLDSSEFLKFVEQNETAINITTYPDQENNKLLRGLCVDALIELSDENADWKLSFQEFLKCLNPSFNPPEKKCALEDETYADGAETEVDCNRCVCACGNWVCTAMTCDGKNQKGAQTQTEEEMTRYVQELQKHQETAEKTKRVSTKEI
Description: as §1, with “CD45− negative” for “CD45-negative”, “67A).” for “5A).”
Mouse bone marrow cells prepared in the same way as in Example 4 were supplemented with 20 ng/mL (final concentration) of FSTL1 and 10 μg/mL of the anti-FSTL1 antibody (#5-2, #5-3, #5-8, #5-10, #5-43, #6-55, #8-1, #8-4, #8-7, and #8-8) or a control antibody anti-DNP antibody and cultured under stimulation. 8 days thereafter, the number of cells was counted while the cells were stained with a PE-Cy5-labeled anti-CD45 antibody, and the content of CD45− negative cells was analyzed by flow cytometry using FACScan to calculate the percentage and number of MSCs per culture (FIG. 68A).
Mouse bone marrow cells prepared in the same way as in Example 4 were supplemented with 20 ng/mL (final concentration) of FSTL1 and 10 μg/mL of the anti-FSTL1 antibody (#5-2, #5-8, #6-55, #7-34, #8-1, #8-4, #8-7, or #8-8) or a control antibody anti-DNP antibody and cultured under stimulation. 8 days thereafter, the number of cells was counted while the cells were stained with a PE-Cy5-labeled anti-CD45 antibody, and the content of CD45− negative cells was analyzed by flow cytometry using FACScan to calculate the percentage and number of MSCs per culture (FIG. 69).

B1: #8-8: chicken-mouse chimeric anti-FSTL1 antibody clone; variable regions SEQ ID NO: 803 (light), 805 (heavy) (antibody, V domains shown)
VH: AVTLDESGGGLQTPGGALSLVCKGSGFTFSSFNMFWVRQAPGKGLEWVAGIGKDGVPKYGAAVDGRATISKDNGQSTMRLQLNNLRAEDTGTYYCAKAAGGCSYGWCGAYTGDIDTWGHGTEVIVSS
VL: ASTQPSSVSANPGEAVKITCSGGSGSYYGWYQQKSPGSAPVTVIYNNNQRPSDIPSRFSGSKSGSTATLTITGVQVEDEAVYFCGGYDSSTGHGGIFGAGTTLTVL
modifications: mouse constant regions
For B1, which “inhibitory activity against the expansion of CD45-negative cells by FSTL1” value [1] is on record?
The value was “Inhibitory activity was confirmed”.

And the “inhibitory activity against the expansion of CD45-negative cells by FSTL1” value [2]?
The value was “Inhibitory activity was confirmed”.
